According to article PMC3218035, “Nuclear Exportin Receptor CAS Regulates the NPI-1–Mediated Nuclear Import of HIV-1 Vpr” (PLoS ONE, 2011):

T1: Qip1 (importin α3), full-length, GST cleaved (human, UniProt O00629 1-521)
T1 construct: also called Qip1_(full); full-length Qip1; source: E. coli BL21 CodonPlus (DE3)-RIL, purified (Glutathione Sepharose 4FF), GST cleaved with PreScission protease
T1 sequence (looked up): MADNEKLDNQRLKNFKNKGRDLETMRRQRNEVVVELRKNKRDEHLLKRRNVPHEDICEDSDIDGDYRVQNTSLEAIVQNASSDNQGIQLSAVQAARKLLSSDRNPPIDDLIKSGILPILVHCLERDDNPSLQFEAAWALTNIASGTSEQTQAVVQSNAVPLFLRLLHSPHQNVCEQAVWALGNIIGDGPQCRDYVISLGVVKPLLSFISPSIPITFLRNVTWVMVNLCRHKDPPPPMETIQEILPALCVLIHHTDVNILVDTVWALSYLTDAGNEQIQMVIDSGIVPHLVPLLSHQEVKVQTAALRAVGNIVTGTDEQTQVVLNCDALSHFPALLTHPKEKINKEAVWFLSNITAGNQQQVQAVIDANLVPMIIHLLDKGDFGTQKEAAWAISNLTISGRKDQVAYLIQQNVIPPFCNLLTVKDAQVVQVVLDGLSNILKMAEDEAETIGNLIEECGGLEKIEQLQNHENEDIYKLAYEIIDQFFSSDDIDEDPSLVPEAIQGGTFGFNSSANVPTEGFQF

T2: Qip1 392–537 C-terminal peptide mutant, GST cleaved (human, UniProt O00629 392-521)
T2 construct: also called Qip1 394–521 (methods); source: E. coli BL21 CodonPlus (DE3)-RIL, purified (Glutathione Sepharose 4FF), GST cleaved with PreScission protease
T2 sequence (looked up): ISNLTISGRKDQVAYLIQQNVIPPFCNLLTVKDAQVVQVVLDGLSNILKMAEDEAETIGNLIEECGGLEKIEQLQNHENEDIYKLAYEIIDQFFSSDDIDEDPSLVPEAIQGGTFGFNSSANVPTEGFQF


Columns and labels:
[1] = biological target: T3, NPI-1 (importin α5), full-length, GST cleaved (human, UniProt P52294 1-538); experiment: SPR; conditions: both partners purified
T3 construct: also called NPI-1_(full); full-length NPI-1; source: E. coli BL21 CodonPlus (DE3)-RIL, purified (Glutathione Sepharose 4FF), GST cleaved with PreScission protease
T3 sequence (P52294 whole entry): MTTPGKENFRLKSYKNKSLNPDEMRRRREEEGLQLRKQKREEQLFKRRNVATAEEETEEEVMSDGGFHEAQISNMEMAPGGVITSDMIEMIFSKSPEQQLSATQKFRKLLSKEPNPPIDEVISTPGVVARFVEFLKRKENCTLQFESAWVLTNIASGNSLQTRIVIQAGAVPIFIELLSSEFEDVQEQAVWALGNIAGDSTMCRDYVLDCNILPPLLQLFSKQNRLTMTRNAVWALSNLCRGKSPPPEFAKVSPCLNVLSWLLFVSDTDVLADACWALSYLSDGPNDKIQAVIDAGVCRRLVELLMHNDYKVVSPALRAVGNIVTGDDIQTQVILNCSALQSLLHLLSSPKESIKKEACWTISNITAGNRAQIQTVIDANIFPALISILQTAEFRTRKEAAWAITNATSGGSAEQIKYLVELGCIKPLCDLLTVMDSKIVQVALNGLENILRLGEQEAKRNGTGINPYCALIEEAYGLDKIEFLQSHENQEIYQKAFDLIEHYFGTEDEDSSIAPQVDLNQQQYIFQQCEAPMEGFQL

[2] = biological target: T1, Qip1 (importin α3), full-length, GST …; experiment: SPR; conditions: both partners purified
[3] = biological target: T4, Rch1 404–529 C-terminal peptide mutant, GST cleaved (human, UniProt P52292 404-529); experiment: SPR; conditions: both partners purified
T4 construct: also called Rch1 C-terminal peptide; source: E. coli BL21 CodonPlus (DE3)-RIL, purified (Glutathione Sepharose 4FF), GST cleaved with PreScission protease

[4] = biological target: T2, Qip1 392–537 C-terminal peptide mutant, …; experiment: SPR; conditions: both partners purified
[5] = biological target: T5, NPI-1 404–541 C-terminal peptide mutant, GST cleaved (human, UniProt P52294 404-538); experiment: SPR; conditions: both partners purified
T5 construct: also called NPI-1 406–538 (methods); source: E. coli BL21 CodonPlus (DE3)-RIL, purified (Glutathione Sepharose 4FF), GST cleaved with PreScission protease
T5 sequence (P52294 404-538, change not shown): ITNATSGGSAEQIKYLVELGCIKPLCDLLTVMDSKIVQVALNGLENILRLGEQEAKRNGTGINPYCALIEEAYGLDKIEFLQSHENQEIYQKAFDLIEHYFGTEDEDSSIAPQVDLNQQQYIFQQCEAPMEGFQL

[6] = biological target: Rch1 (importin α1), full-length, GST cleaved (human), P52292; experiment: SPR; conditions: remark: other sources report otherwise
[7] = biological target: T6, GST-tagged NPI-1 (importin α5), full-length (human, UniProt P52294 1-538); experiment: pull-down; conditions: both partners purified
T6 construct: also called GST-NPI-1; SPR1; source: E. coli BL21 CodonPlus (DE3)-RIL, purified (Glutathione Sepharose 4FF)
T6 sequence (P52294 whole entry): as the sequence (P52294 whole entry) above

Row | Binder | Kd [1] [µM] | Kd [2] [µM] | Kd [3] [µM] | Kd [4] [µM] | Kd [5] [µM] | Kd [6] [µM] | mRFP-Vpr bound to GST-NPI-1 with CAS and Q69LRanGTP, fold of the sample without CAS [7] [fold]
1 | GST-tagged-Vpr (natural protein, also called GST-Vpr; source: E. coli, purified (GSH system, His-Trap column), dialyzed against transport buffer) MEQAPEDQGPQREPYNEWTLELLEELKSEAVRHFPRIWLHNLGQHIYETYGDTWAGVEAIIRILQQLLFIHFRIGCRHSRIGVTRQRRARNGASRS | 7.4 | 6.8 | 4.3 | 6.5 | 6.7 | 8.9 | 
2 | cellular apoptosis susceptibility (CAS) protein, recombinant (natural protein, UniProt P55060 1-971, looked up, also called CSE1L; source: E. coli BL21 CodonPlus (DE3)-RIL, purified (Glutathione Sepharose 4FF)) MELSDANLQTLTEYLKKTLDPDPAIRRPAEKFLESVEGNQNYPLLLLTLLEKSQDNVIKVCASVTFKNYIKRNWRIVEDEPNKICEADRVAIKANIVHLMLSSPEQIQKQLSDAISIIGREDFPQKWPDLLTEMVNRFQSGDFHVINGVLRTAHSLFKRYRHEFKSNELWTEIKLVLDAFALPLTNLFKATIELCSTHANDASALRILFSSLILISKLFYSLNFQDLPEFFEDNMETWMNNFHTLLTLDNKLLQTDDEEEAGLLELLKSQICDNAALYAQKYDEEFQRYLPRFVTAIWNLLVTTGQEVKYDLLVSNAIQFLASVCERPHYKNLFEDQNTLTSICEKVIVPNMEFRAADEEAFEDNSEEYIRRDLEGSDIDTRRRAACDLVRGLCKFFEGPVTGIFSGYVNSMLQEYAKNPSVNWKHKDAAIYLVTSLASKAQTQKHGITQANELVNLTEFFVNHILPDLKSANVNEFPVLKADGIKYIMIFRNQVPKEHLLVSIPLLINHLQAESIVVHTYAAHALERLFTMRGPNNATLFTAAEIAPFVEILLTNLFKALTLPGSSENEYIMKAIMRSFSLLQEAIIPYIPTLITQLTQKLLAVSKNPSKPHFNHYMFEAICLSIRITCKANPAAVVNFEEALFLVFTEILQNDVQEFIPYVFQVMSLLLETHKNDIPSSYMALFPHLLQPVLWERTGNIPALVRLLQAFLERGSNTIASAAADKIPGLLGVFQKLIASKANDHQGFYLLNSIIEHMPPESVDQYRKQIFILLFQRLQNSKTTKFIKSFLVFINLYCIKYGALALQEIFDGIQPKMFGMVLEKIIIPEIQKVSGNVEKKICAVGITKLLTECPPMMDTEYTKLWTPLLQSLIGLFELPEDDTIPDEEHFIDIEDTPGYQTAFSQLAFAGKKEHDPVGQMVNNPKIHLAQSLHKLSTACPGRVPSMVSTSLNAEALQYLQGYLQAASVTLL |  |  |  |  |  |  | 0.2
